Measured values reported in publication PMC11374337 (2024).

Experiments:
[1] = biological target: paxillin LIM2/3 tandem domain (aa380-499) (human) (UniProt P49023); test: NMR titration; 1H-15N HSQC, 250-300 μM 15N-labelled paxillin LIM2/3 (wt or 4A), unlabelled integrin β3 tail added; 298 K, 50 mM Na2HPO4, 150 mM NaCl, 0.1 mM ZnSO4, 1 mM DTT, 5% D2O, pH 7.5; global fit of CSPs
[2] = biological target: cytoplasmic tail of human integrin β3 (aa748-788) (human) (UniProt P05106); test: NMR titration; 1H-15N HSQC, 300 μM 15N-labelled integrin β tail, unlabelled paxillin LIM2/3 added; 298 K, 50 mM Na2HPO4, 150 mM NaCl, 0.1 mM ZnSO4, 1 mM DTT, 5% D2O, pH 6.2; global fit of CSPs to a one site binding model
[3] = biological target: cytoplasmic tail of human integrin β1 (aa758-798) (human) (UniProt P05556); test: as above
ITGB1 = biological target: T1, ITGB1 (Homo sapiens (Human), UniProt P05556); test: NMR
T1 chain: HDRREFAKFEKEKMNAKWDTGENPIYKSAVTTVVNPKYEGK

ITGB3 = biological target: T2, ITGB3 (Homo sapiens (Human), UniProt P05106); test: NMR
T2 chain: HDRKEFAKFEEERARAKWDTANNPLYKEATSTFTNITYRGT

cytoplasmic tail of human integrin β3 (aa748-788) (from UniProt P05106 748-788) (domain or fragment)
Kd [1]: 532 µM

paxillin LIM2/3 tandem domain (aa380-499) (from UniProt P49023-2 380-499) (domain or fragment)
Kd [2]: 528 µM
fraction bound at the end of the titration [2]: 70%
Kd [3]: 52 µM

B1: paxillin (protein)
chain: SPRCYYCNGPILDKVVTALDRTWHPEHFFCAQCGAFFGPEGFHEKDGKAYCRKDYFDMFAPKCGGCARAILENYISALNTLWHPECFVCRECFTPFVNGSFFEHDGQPYCEVHYHERRGS
Kd (ITGB1): 52 µM
Kd (ITGB3): 528 µM
